Reference: the supplement of paper PMC9170038

Tested on: MS2 coat protein
Test: apparent KD of MS2 coat protein; higher = weaker reporter binding
Details: Eterna round: R107
Description: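 RNA-MaP round R107: designed RNA switches with theophylline, tryptophan, arginine or FMN aptamers are transcribed on-chip within common flanks. They are titrated with SNAP-549-labelled MS2 coat protein in RNA-MaP buffer (100 mM Tris pH 7.5, 80 mM KCl, 4 mM MgCl2), without ligand or with the indicated ligand. Median apparent KD per design.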

[1] = input ligand: theophylline 20 uM
[2] = input ligand: theophylline 2 mM
[3] = input ligand: tryptophan 2.4 mM

Row | Sequence | apparent KD of MS2 coat protein (input ligand: arginine 13.2 mM) | apparent KD of MS2 coat protein (input ligand: none) | apparent KD of MS2 coat protein [1] | apparent KD of MS2 coat protein [2] | apparent KD of MS2 coat protein [3]
1 | AGAUGUAGCGGAAGGAGCGUCAUGAGGAUCACCCAUGGCUCCCGUUGUGGGAGUUCCUUAGGUCAGGUAGGUCGCCGUUACGUCA [Omei Arg B SS B v6] | 79.7 nM | 359 nM | 187 nM | 254 nM | 137 nM
2 | AGAUUCGACACGGCCGCCACUUGUGGUGGAUUAUCCAGUGUCGAACAUGAGGAUCACCCAUGUACAAGGACCGGGUGUUGAGUCU [XTryp B #19] | 53.3 nM | – | 79.3 nM | 96.3 nM | –
3 | AGCAACAAGUCGGCCGCCACUCAUUUAACAUGAGGAUCACCCAUGUGAAUAACAUGAUUGUAAUAGAGGACCGGGACAGUUGCAU [JR_SSTryptoB_Sub014] | 62.1 nM | – | 85.5 nM | 103 nM | –
4 | AGCACUGUGACGGCCGCCACUAUAUUAGGGUGGUAGGGUUCAUAAAUACAUGAGGAUCACCCAUGUAGGACCGGGUCUCAGUGCA [Omei Trp Exc B A v1] | 11.6 nM | 12.1 nM | 15.9 nM | 10 nM | 21.2 nM
5 | AGCCACUCGAGUGAUCCUCACGAGUGGCUACGAGGACCGGUACGGCCGCCACUCGAAUCAACAUGAGGAUCACCCAUGUAAUAAU [Brourdmod02] | 20.5 nM | 202 nM | 159 nM | 802 nM | 54.8 nM
6 | AGCCCUGUGCUAGAUACCAGCUACAUGAGGAUCACCCAUGUGCGUCAAGACUGACUGUGUAGCCCUUGGCAGCUACUCGCAUGUA [Exclusion - Theophylline B (Freestyle 4)] | 11.9 nM | – | 19 nM | – | 12.5 nM
7 | AGCGACAUGCGUGAUACCAGCUACAUGAGGAUCACCCAUGUCAGUAGGAAACUGCUGUGUAGCCCUUGGCAGCACAGUGCAUGUC [Exclusion - Theophylline B (Freestyle 27)] | 36 nM | – | 47.5 nM | – | 36.4 nM
8 | AGCUCGCAUCCUCUAGCGUCAAAGACGCCUCGAGGACCGGUACGGCCGCCACUCGAUAUGAGGAUCACCCAUAUCAAAGCGAGCA [TrypAX 2 #SwitchBubble #AlternativeMS2 #MS2Late #CuTurnoff] | 32.7 nM | 53.8 nM | 59.5 nM | 75.5 nM | 581 nM
9 | AGGACGGCCGGAAGGAGCGGUACAUGAGGAUCACCCAUGUACCUCUGGGCAUCCGUAGUGUGCCAGGUAGGUCGCCGGUUGCGGG [Veatgema] | 11.1 nM | 9.88 nM | 14.5 nM | 12.1 nM | 10.8 nM
10 | AGGGAACAUGAGGAUCACCCAUGUGCCGAUACCAGUGAUUUUCAGCACCCUUGGCAGCGGAACCUUUGUUAUAUUAUUCUUAGGG [theeternabot_sameState_MS2_Theo_A_25] | 32.5 nM | – | 42.4 nM | – | 41.2 nM
11 | AGGUACGGAAUCCUCAUGUAGUCGUACCAACGAGGACCGGUACGGCCGCCACUCGAAUAAACAUGAGGAUCACCCAUGUAAUAAU [T''-M-T'-T-MS2] | 17.6 nM | – | 97.3 nM | 90.1 nM | –
12 | AGUACAUGAGGAUCACCCAUGUAUCGGUACCGAGGACCGGUACGGCCGCCACUCGCAGGACAUGAGGAUCACCCAUGUGCAGCCG [SSTA DOUBLE!!! :-D #10] | 19.2 nM | 36.8 nM | 40.9 nM | 43.8 nM | 35 nM
13 | AGUCUAUGAAGAGAUACCAGUGAGAGACAUAGACAUGAGGAUCACCCAUGUGACAUGAAGCACCCUUGGCAGCUCAACGAGCUCA [Theo B SS t1] | 31.4 nM | – | 50 nM | – | 39 nM
14 | AGUCUUGAACGAAGGAGCGACGUACAUGAGGAUCACCCAUGUGGGAGCGAAAGCUCCUAACGUCAGGUAGGUCGCGUUCGAGACA [Omei Arginine B SS A v1] | 17.7 nM | 16.7 nM | 21.9 nM | 16.2 nM | 18.6 nM
15 | AGUGUUAUAACUGAUACCAGACCUUUGCUUAUACAUGAGGAUCACCCAUGUAAAAUGGCGGUCCCUUGGCAGCAGAGAAUACACA [#08 Same State - Theophylline B] | 30.2 nM | – | 32.9 nM | – | 36.3 nM
16 | AGUGUUAUAACUGAUACCAGACUCUCAUGUUUACAUGAGGAUCACCCAUGUUAUUUCUUUGUCCCUUGGCAGCAGAAUUUACACA [JR_SSTheophyB_Sub009] | 142 nM | – | 298 nM | – | 343 nM
17 | AGUGUUAUAACUGAUACCAGACUUGCGCUUAAACAUGAGGAUCACCCAUGUAAAAUGGUUGUCCCUUGGCAGCAGAAAAUACACA [JR_SSTheophyB_Sub006] | 53.2 nM | – | 98 nM | – | 98.4 nM
18 | AUAACAUGAGGAUCACCCAUGUAAGCAGAUACCAGCUAGGAAACUAGCCCUUGGCAGCUGCAAGGUGAUCCUAAUGCAGCUGCAA [(M1)-(M2)-(T1)-(T2)-(M)'-(T)'_Design3] | 61.9 nM | – | 241 nM | – | 158 nM

Row | Sequence | apparent KD of MS2 coat protein (input ligand: arginine 13.2 mM) | apparent KD of MS2 coat protein (input ligand: none) | apparent KD of MS2 coat protein [1] | apparent KD of MS2 coat protein [2] | apparent KD of MS2 coat protein [3]
19 | AUAACAUGAGGAUCACCCAUGUAAGCAGAUACCAGCUAGGAAACUAGCCCUUGGCAGCUGCAUUCCUCAUGUAGGUAUCUGCUAA [(M1)-(M2)-(T1)-(T2)-(M)'-(T)'_Design4] | 18.4 nM | – | 22.1 nM | – | 16.1 nM
20 | AUAACAUGAGGAUCACCCAUGUAGAGUGAUACCAGACUACGUAAUGUCCCUUGGCAGCACAAGUAAAGUUACGAAUAAUGAUAGA [JR_SSTheophyA_Sub002] | 113 nM | – | 146 nM | – | 137 nM
21 | AUAACAUGAGGAUCACCCAUGUAUUGGUUACGAGGACCGGUACGGCCGCCACUCGUAUUUUGGUGGUAUUUUGUAUAUAUGAUAA [JR_SSTryptoA_Sub018] | 26.6 nM | – | 32.3 nM | 36.5 nM | –
22 | AUAAUAAAGACGGCCGCCACUAUAAACAUGAGGAACAUGAGGAUCACCCAUGUAUGAGGAUCACCUAGGACCGGGUCAAAUAUUA [AstrosExyTryB#3] | 36 nM | 49.4 nM | 70.1 nM | 45.9 nM | 44.7 nM
23 | AUAAUAAUACAUGAGGAUCACCCAUGUAUGCGAGGACCGGUACGGCCGCCACUCGACCUCAUGCAUACAUGAGGAUCACCCAUGU [Same State Tryptophan A 4] | 18.4 nM | – | 55.8 nM | 67.2 nM | –
24 | AUACACCUCGUCCAGGCAAUCUUUAGUGAUACCAGCUAACUCCGUGGCCCUUGGCAGCACAUGAGGAUCACCCAUGUGCGACAUC [Bioninen] | 10.2 nM | – | 13.4 nM | – | 11.6 nM
25 | AUACAUGAGGAUCACCCAUGUCAUACAGAAGGAGCGUCACAUAAGACAGGUAGGUCGCUGAUAUAUACGUCACGAAUAGUGACGA [JR_SSArginiA_Sub017] | 16.8 nM | 18.6 nM | 23.5 nM | 20.4 nM | 18.6 nM
26 | AUACGGCGGUAAAAUCAGAGAGUAAAAGAUACCAGCAAUAAUAAAUGCCCUUGGCAGCUUCUGACAUGAGGAUCACCCAUGUAAA [theeternabot_exclusion_MS2_Theo_A_49] | 15.7 nM | – | 18 nM | – | 15 nM
27 | AUCGUACCUGAUGAUACCAGCAAUUGCUCGUAACAUGAGGAUCACCCAUGUGACCAGUGAUGCCCUUGGCAGCAUGAUCGGUGCA [Same State - Theophylline B (Freestyle 20)] | 45.7 nM | – | 48.9 nM | – | 45.8 nM
28 | AUCGUACCUGAUGAUACCAGCAAUUGCUCGUAACAUGAGGAUCACCCAUGUGACCAGUGAUGCCCUUGGCAGCAUGGUCGGUGCA [Same State - Theophylline B (Freestyle 21)] | 59.5 nM | – | 190 nM | – | 150 nM
29 | AUCUCAUAGAGUGAUACCAGACUACAUGAGGAUCACCCAUGUUACAUUUAAAUAUCAUUUGUCCCUUGGCAGCACAUGAAGUACA [JR_Nu_ExcTheophyB_Sub018] | 22.9 nM | – | 37.3 nM | – | 27.6 nM
30 | AUGCAUAUCAGAAGGAGCGUCUUUAACAUGAGGAUCACCCAUGUAACAUUGAAUUCGAUGAGACAGGUAGGUCGCUGAAUAGUAA [SS-ArgB24] | 27.5 nM | 33.7 nM | 39.3 nM | 32.8 nM | 31.2 nM
31 | AUGGUAAGAACAUGAGGAUCACCCAUGUGACGAGGACCGGUACGGCCGCCACUCGUACCUUAGUCGUCGAACAGAGGAUUCAUGU [Trypt A-MS2@10] | 37.1 nM | – | 138 nM | 125 nM | –
32 | AUGUAAGUGGUGUCACUGUGGUCUAGUGAUACCAGUAUCGAAAGAUACCCUUGGCAGCGCUAGAACAUGAGGAUCACCCAUGUUU [#24 Exclusion-TheophyllineA] | 34.8 nM | – | 74.8 nM | – | 58.3 nM
33 | AUGUACAUGACGGCCGCCACUACACUGAAAGUGGUCCAGAACAUGAGGAUCACCCAUGUAUCAAGUAGGACCGGGUCAUGUACAU [Tryp B Ex t5] | 178 nM | – | 425 nM | 697 nM | –
34 | AUUAAGGAUAUGUAGACGGCGGAGAAGAGACGAGGACCGGUACGGCCGCCACUCGUGUUAGUUAACAUGAGGAUCACCCAUGUAA [#07 Tryptophan A Same State] | 51.3 nM | – | 56.1 nM | 69.6 nM | –
35 | AUUCAUGGAAACAUGACAUACAUUACCGGUCGAGGACCGGUACGGCCGCCACUCGGUUGGUGGCACAUGAGGAUCACCCAUGUUA [SS Tryp A #11] | 25.2 nM | – | 44.2 nM | 30 nM | –
36 | AUUCAUGGAAACAUGACAUAGGGAUCACUCCGAGGACCGGUACGGCCGCCACUCGCGAGGAGGCACAUGAGGAUCACCCAUGUUA [SS Tryp A #4] | 27 nM | – | 73.8 nM | 92.1 nM | –
